Here are results for 6 molecules from patent publication US20260266848A1, “COMPOSITIONS AND METHODS FOR DIAGNOSING AND TREATING DYSTONIA” (Duke University, priority 2023, published 2026).

Test [1] deals with WT MEF EVs. The experiment in a line: Quantitative LC-MS/MS proteomics of EVs from ISRIB-treated WT MEF cultures. The test is classed as cell-based, mouse. As to conditions: EV protein abundance; for WT + ISRIB/WT Cohen's d: ISRIB-treated WT vs WT; for ISRIB and DYT Parallel Direction: WT + ISRIB vs WT, direction compared with DYT/WT. More on the design: key to ISRIB and DYT Parallel Direction / ISRIB and DYT Parallel Direction, Ctdsp1 / ISRIB and DYT Parallel Direction, Pcdh19 / ISRIB and DYT Parallel Direction, Tspan7 / ISRIB and DYT Parallel Direction, Myo1e / ISRIB and DYT Parallel Direction, Plpp3 / ISRIB and DYT Parallel Direction, Sh3bp4 / ISRIB and DYT Parallel Direction, Dnajc7 / ISRIB and DYT Parallel Direction, Drg1 / ISRIB and DYT Parallel Direction, Maea: YES = protein abundance effect similar to DYT/WT.

Test [2] deals with DYT-TOR1A MEF EVs. In words: Quantitative LC-MS/MS proteomics of EVs from drug-treated DYT-TOR1A MEF cultures (ritonavir, salubrinal). In kind it is cell-based, mouse. More on the design: key to RTV Corrective Direction / RTV Corrective Direction, Grwd1 / RTV Corrective Direction, Srrm2 / RTV Corrective Direction, Rbm17 / RTV Corrective Direction, Dcaf8 / RTV Corrective Direction, Edil3 / RTV Corrective Direction, Timp3 / RTV Corrective Direction, Heatr3 / RTV Corrective Direction, Brd4 / RTV Corrective Direction, P3h4 / RTV Corrective Direction, Pacsin3 / RTV Corrective Direction, Naa50 / RTV Corrective Direction, Lpar6 / RTV Corrective Direction, Ndrg1 / RTV Corrective Direction, Kntc1 / RTV Corrective Direction, Cdk11b / RTV Corrective Direction, Sumo1 / RTV Corrective Direction, Lsm4 / RTV Corrective Direction, Hmga2 / RTV Corrective Direction, Cstf1 / RTV Corrective Direction, Tes / RTV Corrective Direction, Sbno1 / RTV Corrective Direction, Unc119b / RTV Corrective Direction, Cfdp1 / RTV Corrective Direction, Sec61b: YES = protein abundance effect opposite to DYT/WT. To be noted: EV protein abundance; for RTV Corrective Direction: DYT + RTV (ritonavir) vs DYT, direction compared with DYT/WT; for DYT + RTV/DYT Cohen's d: ritonavir (RTV)-treated DYT vs DYT.

B1: Fth1 (protein, UniProt P09528 1-182, looked up)
Ferritin heavy chain: MTTASPSQVRQNYHQDAEAAINRQINLELYASYVYLSMSCYFDRDDVALKNFAKYFLHQSHEEREHAEKLMKLQNQRGGRIFLQDIKKPDRDDWESGLNAMECALHLEKSVNQSLLELHKLATDKNDPHLCDFIETYYLSEQVKSIKELGDHVTNLRKMGAPEAGMAEYLFDKHTLGHGDES
As to B1, in test [1], the “WT + ISRIB/WT Cohen's d” value is −3.46; the “ISRIB and DYT Parallel Direction” value was “YES”. In test [2], the “RTV Corrective Direction” value is listed as “YES” and the “DYT + RTV/DYT Cohen's d” value turned out to be 0.31.

B2: Sec23a (protein, UniProt Q01405 2-765, looked up)
Protein transport protein …: TTYLEFIQQNEERDGVRFSWNVWPSSRLEATRMVVPVAALFTPLKERPDLPPIQYEPVLCSRTTCRAVLNPLCQVDYRAKLWACNFCYQRNQFPPTYAGISELNQPAELLPQFSSIEYVVLRGPQMPLIFLYVVDTCIEDEDLQALKESMQMSLSLLPPTALVGLITFGRMVQVHELGCEGISKSYVFRGTKDLSAKQLQEMLGLSKVPVTQATRGPQVQQPPPSNRFLQPVQKIDMNLTDLLGELQRDPWPVPQGKRPLRSSGVALSIAVGLLECTFPNTGARIMMFIGGPATQGPGMVVGDELKTPIRSWHDIEKDNAKYVKKGTKHFEALANRAATTGHVIDIYACALDQTGLLEMKCCPNLTGGYMVMGDSFNTSLFKQTFQRVFTKDIHGQFKMGFGGTLEIKTSREIKISGAIGPCVSLNSKGPCVSENEIGTGGTCQWKICGLSPTTTLAIYFEVVNQHNAPIPQGGRGAVQFVTQYQHSSGQRRIRVTTIARNWADAQTQIQNIAASFDQEAAAILMARLAIYRAETEEGPDVLRWLDRQLIRLCQKFGEYHKDDPNSFRFSETFSLYPQFMFHLRRSPFLQVFNNSPDESSYYRHHFMRQDLTQSLIMIQPILYAYSFSGPPEPVLLDSSSILADRILLMDTFFQILIYHGETIAQWRKSGYQDMPEYENFRHLLQAPVDDAQEILHSRFPMPRYIDTEHGGSQARFLLSKVNPSQTHNNMYAWGQESGAPILTDDVSLQVFMDHLKKLAVSSAA
Take B2: in test [1], the “WT + ISRIB/WT Cohen's d” value is reported as −0.95; the “ISRIB and DYT Parallel Direction” value is on record as “YES”. In test [2], the “RTV Corrective Direction” value is reported as “YES” and the “DYT + RTV/DYT Cohen's d” value is listed as 8.14.

B3: Qars (protein, UniProt Q8BML9 2-775, looked up)
Glutamine--tRNA ligase: ATPDSLALFTGLGLSENKARETLKNEALSTQLREAATQAHQILGSTIDKATGVLLYDLVSRLRDTRRRSFLVSYIANKKIHTGLQLSAALEYVRSHPQDPIDTKDFEQECGVGVVVTPEQIEEAVESTINKHQLQLLAERYRFNMGLLMGEARAALRWADGKMIKNEVDMQVLHLLGPKMEADLVKKPKVAKARLEETDRKTAKDVVEKGEVAGQTLSLMEQLRGEALKFHKPGENYKTPGYVITPYTMDLLKQHLEITGGQVRTRFPPEPNGILHIGHAKAINFNFGYAKANNGICFLRFDDTNPEKEEAKFFTAIYDMVTWLGYTPYKVTYASDYFDQLYAWAVELIHGGLAYVCHQRVEELKGHNPLPSPWRDRPKEESLLLFEAMRKGKFAEGEATLRMKLVMEDGKMDPVAYRVKYTPHHRTGDKWCIYPTYDYTHCLCDSIEHITHSLCTKEFQARRSSYFWLCNALKVYCPVQWEYGRLNLHYAVVSKRKILQLVAAGAVRDWDDPRLFTLTALRRRGFPPEAINNFCARVGVTVAQTTMEPHLLEACVRDVLNDAAPRAMAVLEPLQVVITNFPAPKPLDIRVPNFPADETKGFHQVPFASTVFIERSDFKEESEPGYKRLASGQPVGLRHTGYVIELQNIVRGSSGCVERLEVTCRRADAGEKPKAFIHWVSQPLVCEIRLYECLFQHKNPEDPVEVPGGFLSDLNPASLQVVEGALVDCSVALAKPFDKFQFERLGYFSVDPDSHQGQIVFNRTVTLKEDPGKI
Turning to B3, in test [1], the “WT + ISRIB/WT Cohen's d” value is given as −2.14; the “ISRIB and DYT Parallel Direction” value was “YES”. Besides, in test [2], the “RTV Corrective Direction” value was “YES” and the “DYT + RTV/DYT Cohen's d” value is recorded as 7.21.

B4: Ssbp1 (protein, UniProt Q9CYR0 17-152, looked up)
Single-stranded DNA-binding …: ESEVASSLVLERSLNRVQLLGRVGQDPVMRQVEGKNPVTIFSLATNEMWRSGDSEVYQMGDVSQKTTWHRISVFRPGLRDVAYQYVKKGARIFVEGKVDYGEYMDKNNVRRQATTIIAGKKLVVHSVSGCSLEGLA
On to B4, for which, in test [1], the “WT + ISRIB/WT Cohen's d” value was −1.49; the “ISRIB and DYT Parallel Direction” value is on record as “YES”. Also, in test [2], the “RTV Corrective Direction” value is recorded as “YES” and the “DYT + RTV/DYT Cohen's d” value stood at 3.30.

B5: Plaa (protein, UniProt P27612 1-794, looked up)
Phospholipase A-2-activating …: MASGASRYRLSCSLPGHELDVRGLVCCLYPPGAFVSVSRDRTTRLWAPDSPNRGFTEMHCMSGHSNFVSCVCIIPSSDIYPHGLIATGGNDHNICIFSLDSPMPLYILKGHKDTVCSLSSGKFGTLLSGSWDTTAKVWLNDKCMMTLQGHTAAVWAVKILPEQGLMLTGSADKTIKLWKAGRCERTFLGHEDCVRGLAILSETEFLSCANDASIRRWQITGECLEVYFGHTNYIYSISVFPNSKDFVTTAEDRSLRIWKHGECAQTIRLPAQSIWCCCVLENGDIVVGASDGIIRVFTESEERTASAEEIKAFERELSQATIDSKTGDLGDINAEQLPGREHLSEPGTREGQTRLIRDGERVEAYQWSVSDGRWIKIGDVVGSSGANQQTSGKVLYEGKEFDYVFSIDVNEGGPSYKLPYNVSDDPWLVAYNFLQKNDLNPMFLDQVAKFIIDNTKGQTLGLGNTSFSDPFTGGGRYVPGTSGPSNTVQTADPFTGAGRYMPGSAGMDTTMTGVDPFTGNSAYRSAASKTVNIYFPKKEALTFDQANPTQILGKLKELNGTAPEEKKLTEDDLVLLEKILSLICNNSSEKPTAQQLQILWKAINWPEDIVFPALDILRLSIKHPNVNENFCNEKGDQFSSHLINLLNPKGKPANQLLALRTFCNCFVSQAGQKLMMSQRESLMSHAIELKSGSNKNIHIALATLTLNYSVCFHKDHNIEGKAQCLSVISTILEVVQDLEATFRLLVALGTLISDDSNAIQLAKSLGVDSQIKKYVSVSEPAKVSECCRLVLHLL
In the case of B5, in test [1], the “WT + ISRIB/WT Cohen's d” value is on record as −2.39; the “ISRIB and DYT Parallel Direction” value is reported as “YES”. In addition, in test [2], the “RTV Corrective Direction” value was “YES” and the “DYT + RTV/DYT Cohen's d” value was 8.69.

B6: Ipo11 (protein, UniProt Q8K2V6 1-975, looked up)
Importin-11: MDLNSASSVVLQVLTQATSQDTAVLKPAEEQLKQWETQPGFYSVLLNIFTNHTLDINVRWLAVLYFKHGIDRYWRRVAPHALSEEEKSTLRAGLITNFNEPINQIATQIAVLIAKVARLDCPRQWPELIPTLVESVKVQDDLRQHRALLTFYHVTKTLASKRLAADRKLFYDLASGIYNFACSLWNHHTDTFLQHVSSGNEAAVLSSLERTLLSLKVLRKLTVNGFVEPHKNMEVMGFLHGIFERLKQFLECSRSIGTDNVCRDRLEKTIILFTKVLLDFLDQHPISFTPLIQRSLEFSVSYVFTEVGEGVTFERFIVQCMNLIKMIVKNYAYKPSKNFEDSSPETLEAHKIKMAFFTYPTLTEICRRLVSHYFLLTEEELTMWEEDPEGFTVEETGGDSWKYSLRPCTEVLFIDIFHEYNQTLTPVLLEMMQTLEGPTNVEDMNALLIKDAVYNAVGLAAFELFDSVDFDQWFKTQLLPELQVSHNRYKPLRRRVIWLIGQWISVKFKSDLRPMLYEAICNLLQDQDLVVRIETATTLKLTVDDFEFRTDQFLPYLETMFTLLFQLLQQVTECDTKMHVLHVLSCVIERVNVQIRPYVGCLVQYLPLLWKQSEEHNMLRCAILTTLIHLVQGLGADSKNLYPFLLPVIQLSTDVSQPPHVYLLEDGLELWLVTLENSPCVTPELLRIFQNMSPLLELSSENLRTCFKIINGYIFLSSTEFLQTYAAGLCQSFYELLPEITTEGQVQVLKVVENALKVNPVLGPQMFQRILPCVFRGVIEGERYPVVMSIYLAVMGRVLLQNTSFFSSLLNEMGHEFNQEMDQLLGNVIEMWVDRMDNITQPERKKLSALALLSLLPSDNSVIQDKFCGIINISVEALHDVMTEDPETRTYKDCMLMSQHEEPKVTEDEEPPTEQDKRKKMLALKDPVHTVSLQQFIYEKLKAQQEILGEQGFQSLMETVDTEIVTQLQEFLQGF
For the molecule B6, in test [1], the “WT + ISRIB/WT Cohen's d” value is on record as −1.97; the “ISRIB and DYT Parallel Direction” value is reported as “YES”. In test [2], the “RTV Corrective Direction” value is reported as “YES” and the “DYT + RTV/DYT Cohen's d” value turned out to be 9.75.
